From patent publication US20160274129

T1: α-fructosyl-valyl-histidyl-leucyl-threonyl-proryl-glutamic acid
T1 chain: VHLTPE


Molecular target: T1, α-fructosyl-valyl-histidyl-leucyl-threon …

Row | Protein | αF6P oxidation activity (crude enzyme; αFVH oxidation activity = 100) (relative (αFVH = 100)) | αF6P/αFV | αF6P/αFVH | Specific activity (U/mg), 1 mM αF6P, purified enzyme | fold of specific activity on αF6P against PnFX before mutation
1 | CFP-T7-H2 (protein) MTSNRADTRVIVVGGGGTIGSSTALHLVRSGYAPANITVLDTFEIPSAQSAGHDLNKIMGIALRNKVDLQMSLEARQMWKEDELFQPFFHNTGRMDCEHTPEGIEDLKKLYQALHDAGAGLEKTHAWLDNEDEILSKMPLLQRDQIQGWKAIWSQDGGWLAAAKAINAIGQFLKERGVKFGFGGAGSFKQPLFDDEGTTCIGVETADGTKYYADKVVLAAGAWSPTLVDLEDQCCSKAWVYAHIQLTPEEAAEYKGVPVVYNGEFGFFFEPDEFGVIKVCDEFPGFSRFKEHQPYGAPSPKRISVPRSHAKHPTDTYPDASEVSIKKAIATFLPRFQDKELFNRALCWCTDTADAALLMCEHPKWKNFILATGDSGHSFKILPNVGKYVVELIEGRLPEEMAYQWRWRPGGDALKSRRAAPPKDLADMPGWKHDPKL | 0.0735 | 0.000536 | 0.000735 |  | 
2 | PnFX (protein) MAPSRANTSVIVVGGGGTIGSSTALHLVRSGYTPSNVTVLDAYPIPSSQSAGNDLNKIMGVSLRNPVDLQLALEARQMWNEDELFKKFFHNTGRLDCAHGEKDIADLKSGYQALVDAGLDATNEWLDSEDEILKRMPLLSRDQIKGWKAIFSKDGGWLAAAKAINAVGEYLRDQGVRFGFYGAGSFKAPLLAEGVCIGVETVDGTRYYADKVVLAAGAWSPTLVELHEQCVSKAWVYGHIQLTPEEAARYKNSPVVYNGDVGFFFEPNEHGVIKVCDEFPGFTRFKMHQPFGAKAPKRISVPRSHAKHPTDTIPDASDVSIRRAIATFMPQFKNKKMFNQAMCWCTDTADAALLICEHPEWKNFVLATGDSGHSFKLLPNIGKHVVELLEGTLADDLAHAWRWRPGSGDALKSRRSAPAKDLADMPGWNHDKPRANL |  |  |  | 0.0091 U/mg | 
3 | PnFX-62D/106K/110L/113K (protein) MAPSRANTSVIVVGGGGTIGSSTALHLVRSGYTPSNVTVLDAYPIPSSQSAGNDLNKIMGVDLRNPVDLQLALEARQMWNEDELFKKFFHNTGRLDCAHGEKDIAKLKSLYQKLVDAGLDATNEWLDSEDEILKRMPLLSRDQIKGWKAIFSKDGGWLAAAKAINAVGEYLRDQGVRFGFYGAGSFKAPLLAEGVCIGVETVDGTRYYADKVVLAAGAWSPTLVELHEQCVSKAWVYGHIQLTPEEAARYKNSPVVYNGDVGFFFEPNEHGVIKVCDEFPGFTRFKMHQPFGAKAPKRISVPRSHAKHPTDTIPDASDVSIRRAIATFMPQFKNKKMFNQAMCWCTDTADAALLICEHPEWKNFVLATGDSGHSFKLLPNIGKHVVELLEGTLADDLAHAWRWRPGSGDALKSRRSAPAKDLADMPGWNHDKPRANL |  |  |  | 0.125 U/mg | specific activity on αF6P was elevated by 13.7 fold
4 | PnFX-62D/63H/106K/110L/113K/351S (protein) MAPSRANTSVIVVGGGGTIGSSTALHLVRSGYTPSNVTVLDAYPIPSSQSAGNDLNKIMGVDHRNPVDLQLALEARQMWNEDELFKKFFHNTGRLDCAHGEKDIAKLKSLYQKLVDAGLDATNEWLDSEDEILKRMPLLSRDQIKGWKAIFSKDGGWLAAAKAINAVGEYLRDQGVRFGFYGAGSFKAPLLAEGVCIGVETVDGTRYYADKVVLAAGAWSPTLVELHEQCVSKAWVYGHIQLTPEEAARYKNSPVVYNGDVGFFFEPNEHGVIKVCDEFPGFTRFKMHQPFGAKAPKRISVPRSHAKHPTDTIPDASDVSIRRAIATFMPQFKNKKMFNQAMCWCTDTADSALLICEHPEWKNFVLATGDSGHSFKLLPNIGKHVVELLEGTLADDLAHAWRWRPGSGDALKSRRSAPAKDLADMPGWNHDKPRANL |  |  |  | 0.667 U/mg | 
5 | EFP-T5 (protein) MAHSRASTKVVVVGGGGTIGSSTALHLIRSGYTPSNITVLDVYKTPSLQSAGHDLNKIMGIRLRNGPDLQLSLESLDMWQNDELFKPFFHQVGMIDCSSSKEGIENLRRKYQTLLDAGIGLEKTNVWLESEDEILAKAPNFTREQVKGWKGLFCTDGGWLAAAKAINAIGIFLQDKGVKFGFGDAGTFQQPLFAADGKTCIGLETTDGTKYFADKVVLAAGAWSPTLVDLEDQCVSKAWVFAHIQLTPKEADAYKNVPVVYDGEYGFFFEPDEYGVIKVCDEFPGFSRFKLHQPYGAASPKMISVPRSHAKHPTDTYPDASEVTIRKAIARFLPEFKDKELFNRTMCWCTDTADANLLICEHPKWKNFILATGDSGHSFKLLPNIGKYVVELLEGSLSQEMAGAWRWRPGGDALRSRRGAPAKDLAEMPGWKHDAHL |  |  |  | 0 U/mg | 
6 | EFP-T5-R62D (protein) MAHSRASTKVVVVGGGGTIGSSTALHLIRSGYTPSNITVLDVYKTPSLQSAGHDLNKIMGIDLRNGPDLQLSLESLDMWQNDELFKPFFHQVGMIDCSSSKEGIENLRRKYQTLLDAGIGLEKTNVWLESEDEILAKAPNFTREQVKGWKGLFCTDGGWLAAAKAINAIGIFLQDKGVKFGFGDAGTFQQPLFAADGKTCIGLETTDGTKYFADKVVLAAGAWSPTLVDLEDQCVSKAWVFAHIQLTPKEADAYKNVPVVYDGEYGFFFEPDEYGVIKVCDEFPGFSRFKLHQPYGAASPKMISVPRSHAKHPTDTYPDASEVTIRKAIARFLPEFKDKELFNRTMCWCTDTADANLLICEHPKWKNFILATGDSGHSFKLLPNIGKYVVELLEGSLSQEMAGAWRWRPGGDALRSRRGAPAKDLAEMPGWKHDAHL |  |  |  | 0.0043 U/mg | 
7 | EFP-T5-62D/63H/106K/110L/113K/355S (protein) MAHSRASTKVVVVGGGGTIGSSTALHLIRSGYTPSNITVLDVYKTPSLQSAGHDLNKIMGIDHRNGPDLQLSLESLDMWQNDELFKPFFHQVGMIDCSSSKEGIEKLRRLYQKLLDAGIGLEKTNVWLESEDEILAKAPNFTREQVKGWKGLFCTDGGWLAAAKAINAIGIFLQDKGVKFGFGDAGTFQQPLFAADGKTCIGLETTDGTKYFADKVVLAAGAWSPTLVDLEDQCVSKAWVFAHIQLTPKEADAYKNVPVVYDGEYGFFFEPDEYGVIKVCDEFPGFSRFKLHQPYGAASPKMISVPRSHAKHPTDTYPDASEVTIRKAIARFLPEFKDKELFNRTMCWCTDTADSNLLICEHPKWKNFILATGDSGHSFKLLPNIGKYVVELLEGSLSQEMAGAWRWRPGGDALRSRRGAPAKDLAEMPGWKHDAHL |  |  |  | 1.12 U/mg | 
8 | AnFX (protein) MTPRANTKIIVVGGGGTMGSSTALHLLRAGYTPSNITVLDTCPIPSAQSAGYDLNKIMGIRLRNKPDLQLSLEALDMWKNDPLFKPFFHNVGMIDVSSTEEGIEGLRKKYQSLLDAGIGLEKTNFMLESEDEILAKAPHFTQEQIKGWKGLFCGDGGWLAAAKAINAIGQFLKEQGVKFGFGGAGTFKKPLFADAHEKTCIGVETVDGTKYYADKVVLAAGAWSSTLVDLEEQCVSKAWVFAHIQLTPAEAAAYKNTPVIYDGDYGFFFEPNENGIIKVCDEFPGFTHFKMHQPYGSPAPKPISVPRSHAKHPTDTYPHASEVTIKKAINRFLPRFNDKELFNRAMCWCTDTADANLLVCEHPRWKGFYLATGDSGHSFKLLPNIGKHVVELLEERLESVFKDAWRWRPGSGDALKSRRAAPAKDLADMPGWRNEAKM |  |  |  | 0 U/mg | 
9 | AnFX-61D/105K/109L (protein) MTPRANTKIIVVGGGGTMGSSTALHLLRAGYTPSNITVLDTCPIPSAQSAGYDLNKIMGIDLRNKPDLQLSLEALDMWKNDPLFKPFFHNVGMIDVSSTEEGIEKLRKLYQSLLDAGIGLEKTNFMLESEDEILAKAPHFTQEQIKGWKGLFCGDGGWLAAAKAINAIGQFLKEQGVKFGFGGAGTFKKPLFADAHEKTCIGVETVDGTKYYADKVVLAAGAWSSTLVDLEEQCVSKAWVFAHIQLTPAEAAAYKNTPVIYDGDYGFFFEPNENGIIKVCDEFPGFTHFKMHQPYGSPAPKPISVPRSHAKHPTDTYPHASEVTIKKAINRFLPRFNDKELFNRAMCWCTDTADANLLVCEHPRWKGFYLATGDSGHSFKLLPNIGKHVVELLEERLESVFKDAWRWRPGSGDALKSRRAAPAKDLADMPGWRNEAKM |  |  |  | 0.106 U/mg | 
10 | AnFX-61D/62H/101K/105K/109L/112K/355S (protein) MTPRANTKIIVVGGGGTMGSSTALHLLRAGYTPSNITVLDTCPIPSAQSAGYDLNKIMGIDHRNKPDLQLSLEALDMWKNDPLFKPFFHNVGMIDVSSTEKGIEKLRKLYQKLLDAGIGLEKTNFMLESEDEILAKAPHFTQEQIKGWKGLFCGDGGWLAAAKAINAIGQFLKEQGVKFGFGGAGTFKKPLFADAHEKTCIGVETVDGTKYYADKVVLAAGAWSSTLVDLEEQCVSKAWVFAHIQLTPAEAAAYKNTPVIYDGDYGFFFEPNENGIIKVCDEFPGFTHFKMHQPYGSPAPKPISVPRSHAKHPTDTYPHASEVTIKKAINRFLPRFNDKELFNRAMCWCTDTADSNLLVCEHPRWKGFYLATGDSGHSFKLLPNIGKHVVELLEERLESVFKDAWRWRPGSGDALKSRRAAPAKDLADMPGWRNEAKM |  |  |  | 0.283 U/mg | 
11 | NvFX (protein) MTTPRKETTVLIIGGGGTIGSSTALHLLRAGYTPSNITVLDTYPIPSAQSAGNDLNKIMGIRLRNKVDLQLSLEARDMWRNDALFRPFFHNTGRLDCESSAEGVEGLRREYQKLVEAGVGLEETHEWLDSEEAILEKAPLLQREEIEGWKAIWSEEGGWLAAAKAINAIGEELQRQGVRFGFGGAGSFKRPLFADDGTTCIGVETVDGTQYHADKVVLAAGAWSPALVDLEEQCCSKAWVYAHMQLTPEEAAVYKGCPVVYHGDVGFFFEPNENGVIKVCDEFPGFTRFKQHQPYGAPAPKPVSVPRSHAKHPTDTYPDASEESIKRAVSTFLPRFKDKPLFNRALCWCTDTADSALLICEHPRWKNFILATGDSGHSFKLLPIIGKHVVELVEGRLADDLAEAWRWRPGQGDARKSIRAAPAKDLADMPGWKHDQDSESR |  |  |  | 0 U/mg | 
12 | NvFX-62D/106K/110L (protein) MTTPRKETTVLIIGGGGTIGSSTALHLLRAGYTPSNITVLDTYPIPSAQSAGNDLNKIMGIDLRNKVDLQLSLEARDMWRNDALFRPFFHNTGRLDCESSAEGVEKLRRLYQKLVEAGVGLEETHEWLDSEEAILEKAPLLQREEIEGWKAIWSEEGGWLAAAKAINAIGEELQRQGVRFGFGGAGSFKRPLFADDGTTCIGVETVDGTQYHADKVVLAAGAWSPALVDLEEQCCSKAWVYAHMQLTPEEAAVYKGCPVVYHGDVGFFFEPNENGVIKVCDEFPGFTRFKQHQPYGAPAPKPVSVPRSHAKHPTDTYPDASEESIKRAVSTFLPRFKDKPLFNRALCWCTDTADSALLICEHPRWKNFILATGDSGHSFKLLPIIGKHVVELVEGRLADDLAEAWRWRPGQGDARKSIRAAPAKDLADMPGWKHDQDSESR |  |  |  | 0.003 U/mg | 
